Laboratory results reported in publication PMC9537531, “DNA-delivered antibody cocktail exhibits improved pharmacokinetics and confers prophylactic protection against SARS-CoV-2” (Nature Communications, 2022).
Where “and” joins values, the source holds several entries; their conditions need not be identical. Identical values can stand only once.

Molecular target: T1, SARS-CoV-2 6P spike ectodomain peplomer (USA-WA1/2020; 6P stabilization) (SARS-CoV-2 USA-WA1/2020 (MN985325), stabilised)
T1 construct: also called stabilized spike trimer; spike peplomer
Experiment: cryo-EM structure
Details: both partners purified

Row | Binder | stoichiometry N
1 | 2130 dFab, DNA-encoded Fab obtained from serum-derived DMAb 2130 TM(m3) (Fab, V domains shown, also called dFab 2130) VH: EVQLVESGGGLVKPGGSLRLSCAASGFTFRDVWMSWVRQAPGKGLEWVGRIKSKIDGGTTDYAAPVKGRFTISRDDSKNTLYLQMNSLKTEDTAVYYCTTAGSYYYDTVGPGLPEGKFDYWGQGTLVTVSS VL: not shown | 3 dFabs per spike trimer
2 | 2196 dFab, DNA-encoded Fab obtained from serum-derived DMAb 2196 TM(m3) (Fab, V domains shown, also called dFab 2196; 2196DMAb Fab) VH: QMQLVQSGPEVKKPGTSVKVSCKASGFTFMSSAVQWVRQARGQRLEWIGWIVIGSGNTNYAQKFQERVTITRDMSTSTAYMELSSLRSEDTAVYYCAAPYCSSISCNDGFDIWGQGTMVTVSS VL: not shown | 1 dFab per spike trimer and 2 dFabs per spike trimer and 1 copy per RBD (all three RBDs)
